From US20250025535A1, “A COMPOSITION COMPRISING NANOSIZED ACTIVE PHARMACEUTICAL INGREDIENT” (NANOFORM FINLAND OYJ, priority 2021, published 2025)

Assay: Sedimentation of insulin suspension in fish oil
Format: physicochemical
Settings: 10 mg in 1 ml fish oil, room temperature, t=0, 30 min, 60 min, 24 h; compared with bulk insulin
Method: A: t=0 min; B: t=30 min; C: t=60 min; D: t=24 h.
Nanosized insulin or bulk insulin (10 mg, Sigma) was added to 1 ml of fish oil, mixed by vortexing and allowed to stand at room temperature.

With insulin [nanosized insulin] the “sedimentation in fish oil as a function of time” value was “significantly slower”.
